Assay results: publication PMC12796099

Target: human somatostatin receptor 5 (SSTR5) (human) (UniProt P35346)
UniProt P35346, sequence (P35346 whole entry): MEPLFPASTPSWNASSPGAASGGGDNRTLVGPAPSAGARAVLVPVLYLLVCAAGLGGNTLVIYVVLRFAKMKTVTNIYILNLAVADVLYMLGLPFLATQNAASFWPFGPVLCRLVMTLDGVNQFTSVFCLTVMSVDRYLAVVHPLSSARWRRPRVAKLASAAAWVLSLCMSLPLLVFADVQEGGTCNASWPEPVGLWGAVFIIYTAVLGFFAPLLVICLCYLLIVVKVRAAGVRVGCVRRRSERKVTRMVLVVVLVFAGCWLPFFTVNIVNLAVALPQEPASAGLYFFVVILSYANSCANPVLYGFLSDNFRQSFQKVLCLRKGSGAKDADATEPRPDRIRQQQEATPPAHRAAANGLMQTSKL

Substance: SRIF-14-Sed1 periplasmic display fusion (from UniProt P61278 103-116) (ligand)
- autocrine GPCR activation by αPre-ligand-display fusion, DCyFIR mTq2 transcriptional reporter, relative to the Ccw14 fusion (% of the activity of the Ccw14 fusion): 30
